We go through one molecule from US11034736B2, “Anti-viral cnidarins” (priority 2014, dated 2021).

The test system of one data set is HIV-1RF. In words: XTT-tetrazolium anti-HIV assay, HIV-1RF in CEM-SS cells. The data set is classed as cell-based. The conditions noted are these: HIV-1RF, T-tropic laboratory strain, CEM-SS cells, XTT, 6 days. The procedure:
A 2,3-bis-[2-methoxy-4-nitro-5-sulfophenyl]-2H-tetrazolium-5-carboxanilide inner salt (XTT)-tetrazolium-based assay was used to determine the anti-HIV activity of CNID-1, -2 and -3 against a T-tropic laboratory strain (HIV-1RF) in T-lymphoblastic CEM-SS cells as described previously (Gulakowski et al., J. Virol. Methods, 33: 87-100 (1991)). CEM-SS cells were maintained in RPMI 1640 media without phenol red and supplemented with 10% fetal bovine serum (BioWhittaker), 2 mM L-glutamine (BioWhittaker), and 50 μg/ml gentamicin (BioWhittaker) (complete medium). Exponentially growing cells were washed and resuspended in complete medium, and a 50 μl aliquot containing 5×10^3 cells was added to individual wells of a 96-well round-bottom microtiter plate containing serial dilutions of the respective cnidarin protein in a volume of 100 μl of medium. Stock supernatants of HIV-1RF were diluted in complete medium to yield sufficient cytopathicity (80-90% cell kill in 6 days), and a 50 μl aliquot was added to appropriate wells. Plates were incubated for 6 days at 37° C. and then stained for cellular viability using XTT.
The HIV reverse transcriptase inhibitor 3′-Azido-3′-deoxythymidine (AZT) was used as a positive control. All assays were carried out in triplicate for all viruses and cells.
A general note: Tetrazolium assays rely on reduction of a dye to a coloured formazan, in cell work by metabolically active cells.

The subject of a further data set is HIV-1Ba-L. In words: HIV-1 Ba-L replication in human primary macrophage cultures, p24 ELISA. The data set is classed as cell-based. The conditions noted are these: M-tropic, human primary macrophages. An excerpt:
(§1) To test the anti-HIV activity of CNID1 against HIV primary isolates in fresh human cells, monocyte-tropic HIV-1 strain Ba-L was obtained from the NIAID AIDS Research and Reference Reagent Program (National Institutes of Health, Bethesda, Md.). The low passage HIV-1 pediatric isolate ROJO was derived as described previously (Buckheit et al., AIDS Res. Hum. Retroviruses, 10: 1497-1506 (1994)). Human peripheral blood mononuclear cells (PBMCs) and macrophages were isolated from hepatitis and HIV seronegative donors following Ficoll-Paque centrifugation as described elsewhere (Gartner & Popovic, Techniques in HIV Research, Aldovini, A. and Walker B., eds., pp. 59-63, Stockton Press, New York, 1990). Antiviral assays were carried out with 3-day-old phytohaemagglutinin/interleukin-2 stimulated PBMCs or 6-day-cultured monocyte/macrophages. […] HIV-1 replication in PBMC (ROJO) or monocyte macrophage (Ba-L) cultures were determined by measurement of reverse transcriptase activity (Buckheit et al., Antiviral Res., 21: 247-265 (1993)) in the supernatants or p24 antigen expression by ELISA (Coulter, Hialeah, Fla.), respectively. Cell viability by formazan dye reduction was determined in replicated cultures using the CellTiter reagent (Promega, Madison, Wis.). […]

The next data set concerns Macrophage. The data set can be described thus: Cell viability of monocyte/macrophage cultures (CellTiter formazan dye reduction). The data set is classed as cell-based, human. Particulars: macrophages.
Source text: as §1

A further data set deals with HIV-1ROJO. The data set can be described thus: HIV-1 ROJO replication in human PBMC cultures, supernatant reverse transcriptase activity. The data set is classed as cell-based. The conditions noted are these: T-tropic primary isolate.
Source text: as §1

In data set [1] the test system is HIV-1IIIB. The data set can be described thus: Viral attachment assay, cell-associated p24 antigen in HeLa CD4 LTR β-gal cells. The data set is classed as cell-based. The protocol: (§2) Attachment and fusion assays were performed in HeLa-CD4-LTR-β-galactosidase cell lines as described previously (Gartner & Popovic, (1990), supra) with the following modifications. Following the interaction of HIV-1IIIIIB with HeLa CD4 LTR β-gal cells, viral attachment to HeLa CD4 LTR β-gal cells was detected as cell-associated p24 antigen following a 1 hour adsorption of virus and vigorous washing for removal of unbound virus. Fusion of HIV-1IIIIB with HeLa CD4 LTR β-gal cells was detected by chemiluminescence using a single-step lysis and detection method (Tropix Gal-screen, Bedford, Mass.) and results reported as EC50 values. Chicago Sky Blue, a polysulfonic acid dye inhibitor of HIV attachment and fusion, was used as a positive control for all assays (Clanton et al., J. Acquired Immune Defic. Syndr., 5: 771-781 (1992)).

The subject of data set [2] is HIV-1IIIB. In words: Viral fusion assay, chemiluminescence in HeLa CD4 LTR β-gal cells. The data set is classed as cell-based. The protocol:
as §2

For a further data set, the system named is HIV-1US/92/727. In words: Anti-HIV evaluation in PHA-stimulated human PBMCs, reverse transcriptase in supernatant. The data set is classed as cell-based. The conditions noted are these: HIV-1US/92/727, human PBMCs, 7 days. The procedure: (§3) The cultures were incubated for 7 days at 37° C./5% CO2. Efficacy of the compounds was evaluated by measuring the amount of reverse transcriptase in the culture supernatant and toxicity was evaluated using XTT to measure cell viability. AZT was evaluated in parallel as an assay control.

The next data set has as its system human PBMCs. The data set can be described thus: Toxicity in PHA-stimulated human PBMCs, XTT cell viability. The conditions noted are these: human PBMCs, XTT, 7 days. The protocol:
as §3

The next data set has as its target HIV-1HXB2 gp41 (Human immunodeficiency virus type 1 group M subtype B, UniProt P04578). The conditions noted are these: ELISA, 100 ng/well gp41. The procedure:
High protein binding Greiner 96-well plates (VWR, Bridgeport, N.J.) were coated with 1 pmol/well of recombinant HIV-1IIIIB gp120 (Immuno Diagnostics, Woburn, Mass.) or recombinant HIV-1HXB2 gp41 (Vybion Inc., Ithaca, N.Y.) at 4° C. overnight. The wells were emptied and then blocked with 200 μl/well of 3% non-fat dry milk (Bio-Rad, Hercules, Calif.) blocking solution for 2 hrs. A control plate was incubated with blocking solution only. After washing three times with PBST, 0.5-log10 serial dilutions of rCNID-1-Trx were added to triplicate wells of gp120−, gp41− and the blocking solution control plate, and the plates were incubated for 2 hrs. The plates were washed with PBST and 100 W/well of a 1:250 dilution of polyclonal rabbit anti-CNID-1 antibody was added and allowed to incubate for 1 hr, followed by three washes with PBST. Goat anti-rabbit (H+L), peroxidase conjugated secondary antibody (Thermo Fisher Scientific Inc., Rockford, Ill.) was added to each well (100 μl/well of a 1:1000 dilution) and further incubated for 1 hr, followed by three washes with PBST. The TMB 2-component Microwell peroxidase substrate kit (KPL Inc., Gaithersburg, Md.) was used for peroxidase detection: 100 W/well, incubation for 5-10 min and the reaction was stopped by addition of 0.5M HCl (100 W/well) before reading the absorbance at 450 nm.
(In general: ELISA stands for enzyme-linked immunosorbent assay.)

Chain of HIV-1HXB2 gp41 (P04578 512-856): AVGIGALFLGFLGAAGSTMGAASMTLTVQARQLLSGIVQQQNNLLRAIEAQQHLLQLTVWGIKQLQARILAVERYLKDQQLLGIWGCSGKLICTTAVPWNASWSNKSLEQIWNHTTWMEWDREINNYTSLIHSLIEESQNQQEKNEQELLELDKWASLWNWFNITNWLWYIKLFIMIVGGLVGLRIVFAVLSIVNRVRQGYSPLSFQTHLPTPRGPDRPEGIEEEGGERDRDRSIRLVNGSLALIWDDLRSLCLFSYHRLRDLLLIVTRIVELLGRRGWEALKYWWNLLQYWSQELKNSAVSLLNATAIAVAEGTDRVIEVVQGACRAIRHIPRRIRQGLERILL

B1: CNID-1: HIV-inhibitory protein from soft coral Synthecium sp.; 172 amino acids, 18,122 Da, SEQ ID NO: 1 (protein)
chain: GRATLGQLKTSTIPPVTFDVPFDGANIPQDVRFTIATVNGGKGALYNAELGESAGHTIVLESDGDHPIPGTFDPKSGRGLDYLPRGLVLFSSHNYVGNMKMYTEPDSDITADFPPGTPFGVSSAITGEGSAFQLNTGIDHTGEFEIIPPNTKRNLAGVFDNEIRSVSPTGGK
Take B1: the EC50 (as a rule, the concentration at which the effect is half-maximal) in the data set with HIV-1RF was 0.0845 nM; with HIV-1Ba-L it was 1.05 nM; in the data set with HIV-1ROJO, 3.97 nM; in the data set with HIV-1IIIB [1] (read-out: Inhibition of Attachment EC50), over 55.2 nM; with HIV-1IIIB [2] (read-out: Inhibition of Fusion EC50), 1.49 nM; in the data set on HIV-1US/92/727, 0.0427 µg/mL. Besides, in the data set with Macrophage, the CC50 (as a rule, the concentration that lowers cell viability or growth by half) was determined as 3.56 nM. In the data set with HIV-1IIIB [1], the “Inhibition of viral attachment to the cell” value was “did not inhibit attachment”. The “Inhibition of viral fusion” value in the data set with HIV-1IIIB [2] was “inhibit HIV viral fusion”. The molecule further registered a TC50 in the data set on human PBMCs of over 0.5 µg/mL. Besides, in the data set with HIV-1HXB2 gp41, the “Binding to gp41” value was “not gp41”.
